We go through 2 molecules from article PMC2096194 (Nature structural & molecular biology, 2007).

Sequences and labels used below:
B1: Lys80 RAD51 (residues 80-339) (domain or fragment)
chain: KLVPMGFTTATEFHQRRSEIIQITTGSKELDKLLQGGIETGSITEMFGEFRTGKTQICHTLAVTCQLPIDRGGGEGKAMYIDTEGTFRPERLLAVAERYGLSGSDVLDNVAYARAFNTDHQTQLLYQASAMMVESRYALLIVDSATALYRTDYSGRGELSARQMHLARFLRMLLRLADEFGVAVVITNQVVAQVDGAAMFAADPKKPIGGNIIAHASTTRLYLRKGRGETRICKIYDSPCLPEAEAMFAINADGVGDAKD

The data set “SEC” concerns the molecule itself. Put plainly: SEC.
Data set [1] addresses B1. Put plainly: pull-down.
The target in a further data set is T1, Full-length human RAD51 (human, UniProt Q06609 1-339).
T1 sequence: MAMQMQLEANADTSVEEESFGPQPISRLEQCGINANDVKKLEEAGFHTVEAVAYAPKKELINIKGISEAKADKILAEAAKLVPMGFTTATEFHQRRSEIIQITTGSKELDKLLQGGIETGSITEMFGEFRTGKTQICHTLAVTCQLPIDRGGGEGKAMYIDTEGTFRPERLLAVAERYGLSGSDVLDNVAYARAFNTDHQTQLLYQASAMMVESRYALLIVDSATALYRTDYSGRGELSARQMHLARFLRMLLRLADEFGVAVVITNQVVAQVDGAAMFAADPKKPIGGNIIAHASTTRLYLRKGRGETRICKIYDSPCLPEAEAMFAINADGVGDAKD
Description: cross-linking.

Turning to B1, the binding result in “SEC” was “binds”.
For the molecule EKIKEPTLLGFHTASGKKVKIAKESLDKVKNLFDE (biotin on the N-terminus) [BRC4 peptide (human BRCA2 residues 1,514-1,548), biotinylated], the binding result (in data set [1]; in the data set with Full-length human RAD51) was “binds” each time.
